The target in the assay is the different types of antibodies (different animal originated antibodies of Example 2). In words: SPR (Biacore 3000), hybrid on CM-5 chip, antibody in solution. In general terms: In SPR one partner is held on a chip, and binding of the other changes the refractive index at the surface.

B1: peptide hybrid for protein immobilization represented by formula 3 (H2N-GHWRGWVS-NH(CH2CH2O)nCH2CH2CO-Cys-NH2) (peptide)
peptide: RTYRTYRTYRTYKKKG
modifications: C-terminal NH(CH2CH2O)nCH2CH2CO-Cys-NH2 (PEG linker and cysteine amide)
Turning to B1, the SPR reaction value was under 200 RU.

(Values after patent US20100209945A1.)
